The values below come from US11672792B2, “Topical formulations comprising montelukast and combinations with mussel adhesive proteins” (ENLITISA (SHANGHAI) PHARMACEUTICAL CO., LTD, priority 2017, dated 2023).

Where “and” joins values, the source holds several entries; their conditions need not be identical. Identical values can stand only once.

The subject of assay [1] is full thickness skin wounds in diabetic mice. Put plainly: Diabetic Wound Model (Example 7). Type of assay: in vivo, db/db mice (C57BL/KsJ-db/db). The following applies: Day 6; wound tissue; rhEGF 100 IU/each, Mon 100 μg/each, once daily topically. The procedure:
A similar experiment with essentially the same protocol to that described in Example 6 above was carried out on 8 to 12 week-old male db/db mice (C57BL/KsJ-db/db, with a body weight of 35-45 g/mouse; supplied by Changzhou Cvens Experimental Animal Co. Ltd.).
An EMS skin biopsy punch with a […] diameter was used to make wounds.
Different drugs were administrated topically at 20 μL/wound, once daily from Day 0 to Day 18. The model group was given same amount of normal saline.
Samples were taken on Day 6, Day 12 and Day 18 post-wound inflictions.
Histological specimens were analyzed and skin regeneration, fibroblast proliferation, collagen regeneration scores (Masson score) and inflammation scores were estimated as follows.
The HE and Masson stained slices were observed under an optical microscope and were scored (1, 2 or 3 points) according to the following criteria. […]
Fibroblast proliferation was scored as the following criteria:
Inflammation was scored as the following criteria:
Collagen deposition score criterion for the Masson stained sample were as follows. […] No clear blue staining was given 0 points; blue fiber appearing in a scattered pattern was scored as 1 points; if more blue fiber appeared, this was scored as 2 points, and a diffuse blue colour was given 3 points.

The test system of assay [2] is full thickness skin wounds. Briefly: Acute Wound Model (Example 6). Type of assay: in vivo, C57BL/6 mice. Here is the method:
6-8 weeks old male C57BL/6 mice were supplied by Changzhou Cvens Experimental Animal Co. Ltd. Prior to any experiments being conducted, mice were housed under standardized conditions (at a constant temperature or 22±2° C., with alternating 12 hour periods of light and darkness), and were fed on a standard mouse diet with water, for about a week. […] The hair on the back was shaved by a baby hair shaver and depilated with cream. […] EMS skin biopsy punch (Electron Microscopy Sciences, P.O. […] Full thickness skin was removed and the depth reached the fascia. The wounds left open without suture. […] The model group was given same amount of normal saline. Recombinant Human Epidermal Growth Factor (rhEGF, Shanghai Haohai Biological Technology Co. Ltd, Shanghai, China) was purchased and prepared according to the manufacturer's instructions. Lyophilized rhEGF powder (100000 IU/vial) was dissolved in 20 mL of normal saline to make a solution with a 5000 IU/mL concentration. […] MedChemExpress, MCE China, Shanghai, China) was obtained in a powder form and was dissolved in ultrapure water to obtain solutions with concentrations as described in Table 22 (L, M and H indicate low, medium and high montelukast doses, respectively) Wounds were wrapped up with transparent dresser after drug administration. Photographs were taken for each wound every other day from Day 0. Photos were scanned into a computer, and wound areas calculated using ImageJ image analysis software (National Institutes of Health, […]). The unhealed wound area was expressed as a percentage of the original wound area: At/A0×100%, where A0 and At refer to the initial area at Day 0 and the wound area at the date of measurement (time t), respectively. […] Half of the tissue was preserved in 10% neutral buffered formalin (Nanchang […] Experimental Equipment Co., Ltd., Nanchang, […] Provence, China), and analyzed by histological embedding in paraffin wax, sectioning and staining. HE and Masson stained paraffin sections were analyzed under an optical microscope. Skin regeneration, fibroblastic proliferation, collagen regeneration scores and inflammation scores were estimated. The rest of the samples were stored at -80° C. for further analysis. […] The supernatant was collected, and the extracted protein was used for ELISA analysis using standard ELISA test kits and an ELISA reader (SH-1000 Hitachi, Japan). […] (Beijing, China).

The mark [3] stands for this setting: wound tissue, rhEGF 100 IU/wound.

B1: rhEGF: Recombinant Human Epidermal Growth Factor, 5000 IU/mL in normal saline (protein, UniProt P01133 23-1207, looked up)
Pro-epidermal growth factor: PQHWSCPEGTLAGNGNSTCVGPAPFLIFSHGNSIFRIDTEGTNYEQLVVDAGVSVIMDFHYNEKRIYWVDLERQLLQRVFLNGSRQERVCNIEKNVSGMAINWINEEVIWSNQQEGIITVTDMKGNNSHILLSALKYPANVAVDPVERFIFWSSEVAGSLYRADLDGVGVKALLETSEKITAVSLDVLDKRLFWIQYNREGSNSLICSCDYDGGSVHISKHPTQHNLFAMSLFGDRIFYSTWKMKTIWIANKHTGKDMVRINLHSSFVPLGELKVVHPLAQPKAEDDTWEPEQKLCKLRKGNCSSTVCGQDLQSHLCMCAEGYALSRDRKYCEDVNECAFWNHGCTLGCKNTPGSYYCTCPVGFVLLPDGKRCHQLVSCPRNVSECSHDCVLTSEGPLCFCPEGSVLERDGKTCSGCSSPDNGGCSQLCVPLSPVSWECDCFPGYDLQLDEKSCAASGPQPFLLFANSQDIRHMHFDGTDYGTLLSQQMGMVYALDHDPVENKIYFAHTALKWIERANMDGSQRERLIEEGVDVPEGLAVDWIGRRFYWTDRGKSLIGRSDLNGKRSKIITKENISQPRGIAVHPMAKRLFWTDTGINPRIESSSLQGLGRLVIASSDLIWPSGITIDFLTDKLYWCDAKQSVIEMANLDGSKRRRLTQNDVGHPFAVAVFEDYVWFSDWAMPSVMRVNKRTGKDRVRLQGSMLKPSSLVVVHPLAKPGADPCLYQNGGCEHICKKRLGTAWCSCREGFMKASDGKTCLALDGHQLLAGGEVDLKNQVTPLDILSKTRVSEDNITESQHMLVAEIMVSDQDDCAPVGCSMYARCISEGEDATCQCLKGFAGDGKLCSDIDECEMGVPVCPPASSKCINTEGGYVCRCSEGYQGDGIHCLDIDECQLGEHSCGENASCTNTEGGYTCMCAGRLSEPGLICPDSTPPPHLREDDHHYSVRNSDSECPLSHDGYCLHDGVCMYIEALDKYACNCVVGYIGERCQYRDLKWWELRHAGHGQQQKVIVVAVCVVVLVMLLLLSLWGAHYYRTQKLLSKNPKNPYEESSRDVRSRRPADTEDGMSSCPQPWFVVIKEHQDLKNGGQPVAGEDGQAADGSMQPTSWRQEPQLCGMGTEQGCWIPVSSDKGSCPQVMERSFHMPSYGTQTLEGGVEKPHSLLSANPLWQQRALDPPHQMELTQ
modifications: Pro-epidermal growth factor
notes: Recombinant Human Epidermal Growth Factor, 5000 IU/mL in normal saline
Take B1: in assay [1], the “VEGF content, Mean” value is reported as 4.55 pg/g. Also, the “remaining wound area versus the initial wound” value in assay [2] (Day 2, rhEGF 100 IU/wound once daily topically) worked out at 85.73 ± 10.29%; in assay [2] (Day 4, rhEGF 100 IU/wound), 68.15 ± 16.47%; in assay [2] (Day 6, rhEGF 100 IU/wound), 30.85 ± 1.87%; in assay [2] (Day 8, rhEGF 100 IU/wound) it was 16.93 ± 4.03%; in assay [2] (Day 12, rhEGF 100 IU/wound), 5.02 ± 3.03%. Besides, the “Hyp content (μg/mg tissue weight), single animals” value in assay [2] (setting [3]) is 6.54 μg/mg tissue weight and 4.89 μg/mg tissue weight and 5.39 μg/mg tissue weight and 5.45 μg/mg tissue weight. The “Hyp content, Mean (n = 4)” value in assay [2] (setting [3]) is on record as 5.57 μg/mg tissue weight.
